Target: SARS-CoV-2 receptor-binding domain (RBD) (SARS-CoV-2, UniProt P0DTC2)
Test: SPR

B1: 7D6 monoclonal antibody (antibody, V domains shown)
VH: EVQLQQSGAELVRPGASVKLSCTASGFNIKDTYIHWVKQRPEQGLEWIGRIDPGDGDTEYDPSFQGKATITADTSSNTAYLELSSLTSEDTAVYYCTRFYDYVDYGMDYWGQGTSVTVSS
VL: DIQMTQSPASLSASVGETVTITCRASGNIHNYLAWYQQKQGKSPQLLVYNAKTLADGVPSRFSGSGSGTQYSLKINSLQPEDFGSYYCQHFWSTPPWTFGGGTKLEVK
Kd: 3 pM

— article PMC8476643 (2021)
